# B1: 26S proteasome non-ATPase regulatory subunit 9 (Homo sapiens), O00233 (parent)
# chain: MSDEEARQSGGSSQAGVVTVSDVQELMRRKEEIEAQIKANYDVLESQKGIGMNEPLVDCEGYPRSDVDLYQVRTARHNIICLQNDHKAVMKQVEEALHQLHARDKEKQARDMAEAHKEAMSRKLGQSESQGPPRAFAKVNSISPGSPASIAGLQVDDEIVEFGSVNTQNFQSLHNIGSVVQHSEGKPLNVTVIRRGEKHQLRLVPTRWAGKGLLGCNIIPLQR
# Tests used:
# csh1_human CSH1, P0DML2 [1] = variants of: B1; conditions: with csh1_human CSH1, P0DML2
# HNRNPA1, P09651-2 [2] = variants of: B1; conditions: with HNRNPA1, P09651-2
# HNRNPA1, P09651-2 [3] = variants of: B1; conditions: with HNRNPA1, P09651-2; remark: listed apart in the source
# csh1_human CSH1, P0DML2 [4] = variants of: B1; conditions: with csh1_human CSH1, P0DML2; remark: listed apart in the source
# rs14_human RPS14, P62263 = variants of: B1; conditions: with rs14_human RPS14, P62263
# IL6R, P08887-2 = variants of: B1; conditions: with IL6R
# IL6R, P08887-2, sequence (P08887 other isoform, or with tags, fused parts or gaps): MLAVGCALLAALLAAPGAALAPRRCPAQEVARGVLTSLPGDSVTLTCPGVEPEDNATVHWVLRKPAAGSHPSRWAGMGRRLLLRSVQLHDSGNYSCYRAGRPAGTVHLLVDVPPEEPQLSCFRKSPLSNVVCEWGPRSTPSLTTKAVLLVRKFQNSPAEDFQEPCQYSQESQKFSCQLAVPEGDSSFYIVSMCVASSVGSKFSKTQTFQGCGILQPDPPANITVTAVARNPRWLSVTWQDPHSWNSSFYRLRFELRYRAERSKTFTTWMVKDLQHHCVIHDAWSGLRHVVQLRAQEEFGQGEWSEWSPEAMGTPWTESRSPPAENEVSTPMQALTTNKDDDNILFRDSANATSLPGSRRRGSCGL
Variant,"effect of a mutation on the interaction (csh1_human CSH1, P0DML2 [1])","effect of a mutation on the interaction (HNRNPA1, P09651-2 [2])","effect of a mutation on the interaction (HNRNPA1, P09651-2 [3])","effect of a mutation on the interaction (csh1_human CSH1, P0DML2 [4])","effect of a mutation on the interaction (rs14_human RPS14, P62263)","effect of a mutation on the interaction (IL6R, P08887-2)"
MSDEEARQSGGSSQAGVVTVSDVQELMRRKEEIEAQIKANYDVLESQKGIGMNEPLVDCEGYPRSDVDLYQVRTARHNIICLQNDHKAVMKQVEEALHQLHARDKEKQARDMAEAHKEAMSRKLGQSESQGPPRAFAKVNSISPGSPASIAGGQVDDEIVEFGSVNTQNFQSLHNIGSVVQHSEGKPLNVTVIRRGEKHQLRLVPTRWAGKGLLGCNIIPLQR [L153G],decreasing interaction strength,decreasing interaction strength,disrupting interaction strength,disrupting interaction strength,disrupting interaction strength,disrupting interaction strength
MSDEEARQSGGSSQAGVVTVSDVQELMRRKEEIEAQIKANYDVLESQKGIGMNEPLVDCEGYPRSDVDLYQVRTARHNIICLQNDHKAVMKQVEEALHQLHARDKEKQARDMAEAHKEAMSRKLGQSESQGPPRAFAKVNSISPGSPASIAGLQVDDEIVEGGSVNTQNFQSLHNIGSVVQHSEGKPLNVTVIRRGEKHQLRLVPTRWAGKGLLGCNIIPLQR [F162G],decreasing interaction strength,decreasing interaction strength,disrupting interaction strength,disrupting interaction strength,decreasing interaction strength,disrupting interaction strength

# From IntAct's records for PubMed 25009770
